Targets include FcγRIIb; FcγRIIa-131R; FcγRIIa-131H; FcγRIIIa-158V; FcγRIIIa-158F.
Holding throughout (experiment): SPR
For orientation: SPR reads the build-up and loss of mass on a sensor chip optically.

Experiment [1] has as its target FcγRI (CD64) extracellular domain (UniProt P12314).

Chain of FcγRI (CD64) extracellular domain (P12314 16-292): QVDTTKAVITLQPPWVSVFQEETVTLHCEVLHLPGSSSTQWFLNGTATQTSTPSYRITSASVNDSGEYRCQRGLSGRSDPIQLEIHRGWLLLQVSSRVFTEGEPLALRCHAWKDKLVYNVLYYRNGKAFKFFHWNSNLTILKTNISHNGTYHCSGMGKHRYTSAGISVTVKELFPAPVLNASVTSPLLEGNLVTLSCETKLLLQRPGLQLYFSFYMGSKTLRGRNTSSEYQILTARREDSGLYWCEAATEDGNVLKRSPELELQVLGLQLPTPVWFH

One may read the Kd as the equilibrium constant for the complex coming apart. Higher therefore signals a looser complex. As for Hu IgG1, the Kd with FcγRIIb was 4400 nM; with FcγRIIa-131R, 800 nM; with FcγRIIa-131H it was 600 nM; with FcγRIIIa-158V, 200 nM; with FcγRIIIa-158F it was 1400 nM; in experiment [1] it was 0.0643 nM.

Consider Hu IgG4P, for which the Kd is 1600 nM in the experiment with FcγRIIb; 1600 nM with FcγRIIa-131R; 4100 nM with FcγRIIa-131H; 3100 nM in the experiment with FcγRIIIa-158V; 10000 nM in the experiment with FcγRIIIa-158F; 0.472 nM in experiment [1].

For the substance Hu IgG4PAA, the equilibrium dissociation constant (Kd) in the experiment with FcγRIIb was > 10000 nM; with FcγRIIa-131R, > 10000 nM; with FcγRIIa-131H it was > 10000 nM; with FcγRIIIa-158V, 8900 nM; in the experiment with FcγRIIIa-158F, > 10000 nM; in experiment [1], > 200 nM.

Values taken from publication PMC12046042.
